Assay [1] deals with T1, 人Claudin18.2蛋白 (human Claudin18.2) (human, UniProt P56856-2 1-261).
T1 construct: whole, on cells; also called CLD18.2; 密蛋白18.2
The experiment in a line: flow cytometry (FACS) on Claudin18.2-positive HEK293 cells, 0.1-10 μg/mL, FITC goat anti-human IgG.

For assay [2], the target named is T2, 人Claudin18.1 (human Claudin18.1) (human, UniProt P56856 1-261).
T2 construct: whole, on cells; also called CLD18.1; 密蛋白18.1
The experiment in a line: flow cytometry (FACS) on Claudin18.1-positive HEK293 cells, FITC goat anti-human IgG.

B1: HDR002C04 (antibody, human IgG1, lambda, V domains shown)
VH: QVQLVQSGAEVKKPGASVKVSCKASGYTFTSYYMHWVRQAPGQGLEWMGIINPSGGSTSYAQKFQGRVTMTRDTSTSTVYMELSSLRSEDTAVYYCAKGSVDTAMVPGVDYWGQGTLVTVSS
VL: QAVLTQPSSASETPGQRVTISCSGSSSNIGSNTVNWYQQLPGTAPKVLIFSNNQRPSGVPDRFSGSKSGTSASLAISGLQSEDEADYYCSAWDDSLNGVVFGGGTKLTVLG
notes: also called 抗体HDR002C04; 抗Claudin18.2抗体
B1: the values for the binding result in assay [1] and in assay [2] were “binds” and “no binding (tested: 0.1-10 μg/mL tested)”, respectively.

B2: HDR002C06 (antibody, human IgG1, kappa, V domains shown)
VH: QVQLQESGPGLVKPSQTLSLTCTVSGGSISSGGYYWSWIRQHPGKGLEWIGYIYYSGSTYYNPSLKSRVTISVDTSKNQFSLKLSSVTPDDTAKYYCARIVASVGGVDVWGQGTTVTVSS
VL: DIQLTQSPSSVSASVGDRVTITCRASQGISSWLAWYQQKPGKAPKLLIYAASSLQSGVPSRFSGSGSGTDFTLTISSLQPEDFATYYCQQANSFPLTFGGGTKVEIKR
notes: also called 抗体HDR002C06; 抗Claudin18.2抗体
Turning to B2, the binding result in assay [1] was “binds”; in assay [2], “no binding (tested: 0.1-10 μg/mL tested)”.

The values are drawn from patent CN113735974A (HANGZHOU BANGSHUN PHARMACEUTICAL CO LTD, dated 2021).
